The target in assay [1] is T1, human EGFR on tumor cells (human, UniProt P00533 25-1210). Description: cell-based or functional assay.
In assay [2] the target is T1, human EGFR on tumor cells. As to the kind of experiment: cell-based or functional assay. The source holds these as a separate data set.
Assay [3] addresses T2, CD3-specific binding domain C7v14.
T2 construct: Used as analyte in SPR; also called hC22_88B02v14
T2 chain: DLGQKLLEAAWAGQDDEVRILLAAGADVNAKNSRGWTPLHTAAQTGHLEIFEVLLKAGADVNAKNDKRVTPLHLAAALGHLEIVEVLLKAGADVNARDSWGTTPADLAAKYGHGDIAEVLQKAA
As to the kind of experiment: SPR (affinity cited in Example 9; CD3-binding domain taken as C7v14); high affinity Binder #1. From the text: (§1) An important feature of a binding moiety of the invention is its affinity towards a drug molecule. Relevant aspects include the off-rate of the binding moiety from the drug molecule and the resulting blocking half-life. Surface plasmon resonance (SPR) assays were used to determine the binding affinity of ankyrin repeat binding domains to the CD3 binding domain of a TCE drug molecule. AN SPR data was generated using a Bio-Rad ProteOn XPR36 instrument with PBS-T (0.005% Tween 20) as running buffer. A new neutravidin sensor chip (NLC) was air-initialized and conditioned according to Bio-Rad manual.

For assay [4] the target is unchanged. Description: SPR (ProteOn XPR36), biotinylated Binder captured on NLC neutravidin chip as ligand, CD3-specific binding domain as analyte, PBS-T, 25 C; KD from kon/koff.
Excerpt: as §1

The target in assay [5] is T3, CD3-specific binding domain C7v118.
T3 construct: Used as analyte in SPR; also called hC22_88B02v118
T3 chain: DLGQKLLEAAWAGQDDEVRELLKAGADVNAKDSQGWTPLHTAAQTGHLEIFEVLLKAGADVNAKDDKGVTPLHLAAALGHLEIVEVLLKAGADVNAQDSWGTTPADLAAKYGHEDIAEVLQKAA
Described as above.
Excerpt: as §1

The target of assay [6] is T4, CD3-specific binding domain C7v119.
T4 construct: Used as analyte in SPR; also called hC22_88B02v119
T4 chain: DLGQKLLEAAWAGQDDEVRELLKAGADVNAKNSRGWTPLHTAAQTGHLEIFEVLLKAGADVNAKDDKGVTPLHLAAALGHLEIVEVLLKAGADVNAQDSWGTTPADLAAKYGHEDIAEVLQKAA
The assay is described as above.
Excerpt: as §1

Assay [7] addresses T5, CD3-specific binding domain C7v122.
T5 construct: Used as analyte in SPR; also called hC22_88B02v122
T5 chain: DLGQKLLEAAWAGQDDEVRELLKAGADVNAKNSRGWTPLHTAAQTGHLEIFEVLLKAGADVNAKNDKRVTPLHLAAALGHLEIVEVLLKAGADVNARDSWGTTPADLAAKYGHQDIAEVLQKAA
The assay is described as above.
Excerpt: as §1

The target of assay [8] is T6, CD3-specific binding domain C7v127.
T6 construct: Used as analyte in SPR; also called hC22_88B02v127
T6 chain: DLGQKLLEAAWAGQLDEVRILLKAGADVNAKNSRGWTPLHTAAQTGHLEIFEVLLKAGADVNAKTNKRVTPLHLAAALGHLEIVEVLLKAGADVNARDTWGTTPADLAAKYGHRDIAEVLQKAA
The description is as above.
Excerpt: as §1

The target of assay [9] is T2, CD3-specific binding domain C7v14. As to the kind of experiment: SPR (affinity cited in Example 9; CD3-binding domain taken as C7v14); lower affinity Binder #3.
Excerpt: as §1

The target is the same in assay [10]. Description: SPR (ProteOn XPR36), biotinylated Binder captured on NLC neutravidin chip as ligand, CD3-specific binding domain as analyte, PBS-T, 25 C; KD by equilibrium fitting.
Excerpt: as §1

Assay [11] addresses T3, CD3-specific binding domain C7v118. Described as above.
Excerpt: as §1

In assay [12] the target is T4, CD3-specific binding domain C7v119. Described as above.
Excerpt: as §1

The target of assay [13] is T5, CD3-specific binding domain C7v122. The assay is described as above.
Excerpt: as §1

In assay [14] the target is T6, CD3-specific binding domain C7v127. Described as above.
Excerpt: as §1

In general, Kd refers to the free concentration of one partner at which half of the binding sites on the other are occupied at equilibrium, for simple one-to-one binding. A high value points to lower affinity.

B1: CD3-PDD NCL EGFR-C7v14-[NCL2]-06E05v05-6His (designed binder)
chain: MGSDLGYKLLRAAFHGQDDEVRILLAAGADVNAKDLIGQTPLHNAAWVGHLEIVEVLLKAGADVNAKDYYGNTPLHLAAHDGHLEIVEVLLKAGADVNAQDTWGETPADLATNAGHEDIAEVLQKAAGSPTPTPTTPTPTPTTPTPTPTGSDLGQKLLEAAWAGQDDEVRILLAAGADVNAKNSRGWTPLHTAAQTGHLEIFEVLLKAGADVNAKNDKRVTPLHLAAALGHLEIVEVLLKAGADVNARDSWGTTPADLAAKYGHGDIAEVLQKAASGPTPTPTTPTPTPTTPTPTPTGSDLGKKLLQAARAGQLDEVRELLKAGADVNAKDAKGLTPLHLAAYHGHLEIVEVLLKAGADVNAKDVYGWTPLHIAAASGHLEIVEVLLKAGADVNAKDALGWTPLHLAASHGHLEIVEVLLKAGADVNAQDKSGKTPADLAARAGHQDIAEVLQKAAGSHHHHHH
For the molecule B1, the “masking window (EC50 difference between active TCE and CD3-PDD NCL), T-cell activation with A431 cells” value in assay [1] was approximately 200 fold. For the same molecule, in assay [2], the “T-cell activation EC50 (CD25 on CD8+ T cells), EGFR+ HCT 116 tumor cells and pan T-cells” value worked out at 53.2 pM; the “T-cell activation EC50 (CD25 on CD8+ T cells), EGFR+++ A431 tumor cells and pan T-cells” value was 679 pM.

B2: Binder #1 (designed binder)
chain: MRGSHHHHHHGSDLGKKLLQAARAGQLDEVRELLKAGADVNAKDAKGLTPLHLAAYHGHLEIVEVLLKAGADVNAKDVYGWTPLHIAAASGHLEIVEVLLKAGADVNAKDWLGWTPLHLAASHGHLEIVEVLLKAGADVNAQDKSGKTPADLAARAGHQDIAEVLQKAA
modifications: biotinylated for SPR (site not stated)
notes: also called 06E05
In the case of B2, the Kd is less than 1000 pM in [3]; 330 pM in [4]; 440 pM in assay [5]; 360 pM in assay [6]; 210 pM in assay [7]; 20 pM in [8].

B3: Binder #3 (designed binder)
chain: MRGSHHHHHHGSDLGKKLLQAARAGQLDEVRELLKAGADVNAKDAKGLTPLHLAAYHGHLEIVEVLLKAGADVNAKDVYGWTPLHIAAASGHLEIVEVLLKAGADVNAKDALGWTPLHLAASHGHLEIVEVLLKAGADVNAQDKSGKTPADLAARAGHQDIAEVLQKAA
modifications: biotinylated for SPR (site not stated)
notes: N-terminal His-tag; also called 06E05v05
Take B3: the Kd in assay [9] was more than 100000 pM; in assay [10], 189000 pM; in assay [11], 683000 pM; in assay [12], 336000 pM; in assay [13] it was 149000 pM; in assay [14], 53400 pM.

Values taken from patent US20240156980A1 (Molecular Partners, published 2024).
